Reference: publication PMC3900572 (The Journal of neuroscience : the official journal of the …, 2010)

Molecular target: RIBEYE(B)-MBP (rat, UniProt Q9EQH5-2 564-988)
Test: pull-down

Kd: 2720 nM
B1: GST-tagged full-length bovine GCAP2 (amino acids 1–204) (natural protein, UniProt P51177 1-204, looked up)
chain: MGQQFSWEEAEENGAVGAADAAQLQEWYKKFLEECPSGTLFMHEFKRFFKVPDNEEATQYVEAMFRAFDTNGDNTIDFLEYVAALNLVLRGTLEHKLKWTFKIYDKDRNGCIDRQELLDIVESIYKLKKACSVEVEAEQQGKLLTPEEVVDRIFLLVDENGDGQLSLNEFVEGARRDKWVMKMLQMDLNPSSWISQQRRKSAMF
